Measurements as given in paper PMC9019252.

Tests used:
[1] = target: PABPC1 (full length) (human, UniProt P11940 1-636); test: SPR
[2] = target: PABPC1 RRM1/2/3/4 (human, UniProt P11940 1-370); test: SPR
[3] = target: PABPC1 RRM2 (human, UniProt P11940 100-190); test: ITC
[4] = target: PABPC1 RRM2/3 (human, UniProt P11940 100-289); test: ITC
[5] = target: PABPC1 RRM3 (human, UniProt P11940 191-289); test: ITC
[6] = target: PABPC1 RRM1 (human, UniProt P11940 1-99); test: ITC
[7] = target: PABPC1 RRM4 (human, UniProt P11940 290-371); test: ITC
Sequence of PABPC1 RRM4 (P11940 290-371): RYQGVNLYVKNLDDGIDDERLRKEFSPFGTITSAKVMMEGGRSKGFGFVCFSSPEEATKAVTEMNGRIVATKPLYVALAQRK

Sequence of PABPC1 RRM2 (P11940 100-190): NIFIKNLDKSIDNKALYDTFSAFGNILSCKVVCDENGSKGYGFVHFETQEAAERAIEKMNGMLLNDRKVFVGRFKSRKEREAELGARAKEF
Sequence of PABPC1 RRM2/3 (P11940 100-289): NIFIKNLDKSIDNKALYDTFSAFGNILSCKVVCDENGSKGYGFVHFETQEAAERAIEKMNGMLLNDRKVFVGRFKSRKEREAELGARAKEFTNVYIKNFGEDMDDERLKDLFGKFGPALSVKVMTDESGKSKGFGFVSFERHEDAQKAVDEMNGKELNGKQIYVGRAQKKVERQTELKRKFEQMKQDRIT
Sequence of PABPC1 RRM1 (P11940 1-99): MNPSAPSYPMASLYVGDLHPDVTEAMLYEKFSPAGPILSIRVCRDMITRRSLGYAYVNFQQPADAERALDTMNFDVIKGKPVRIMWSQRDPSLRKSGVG
Sequence of PABPC1 (full length) (P11940 whole entry): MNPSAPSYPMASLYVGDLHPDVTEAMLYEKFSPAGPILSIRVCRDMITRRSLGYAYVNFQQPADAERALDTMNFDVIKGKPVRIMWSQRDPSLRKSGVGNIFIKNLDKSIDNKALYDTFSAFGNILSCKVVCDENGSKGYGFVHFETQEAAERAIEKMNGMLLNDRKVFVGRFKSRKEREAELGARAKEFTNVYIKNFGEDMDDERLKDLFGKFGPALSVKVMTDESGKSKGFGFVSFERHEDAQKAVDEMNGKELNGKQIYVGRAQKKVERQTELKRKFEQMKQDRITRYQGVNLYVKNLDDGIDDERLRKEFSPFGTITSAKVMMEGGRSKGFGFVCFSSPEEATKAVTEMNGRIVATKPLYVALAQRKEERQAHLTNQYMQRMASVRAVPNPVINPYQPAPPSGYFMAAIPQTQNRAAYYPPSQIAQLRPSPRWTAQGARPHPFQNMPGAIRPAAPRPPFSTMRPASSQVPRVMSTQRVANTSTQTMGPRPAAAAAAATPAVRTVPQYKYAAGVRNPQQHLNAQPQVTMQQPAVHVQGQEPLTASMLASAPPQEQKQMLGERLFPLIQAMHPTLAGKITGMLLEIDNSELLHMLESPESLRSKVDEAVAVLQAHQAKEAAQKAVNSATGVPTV
Sequence of PABPC1 RRM1/2/3/4 (P11940 1-370): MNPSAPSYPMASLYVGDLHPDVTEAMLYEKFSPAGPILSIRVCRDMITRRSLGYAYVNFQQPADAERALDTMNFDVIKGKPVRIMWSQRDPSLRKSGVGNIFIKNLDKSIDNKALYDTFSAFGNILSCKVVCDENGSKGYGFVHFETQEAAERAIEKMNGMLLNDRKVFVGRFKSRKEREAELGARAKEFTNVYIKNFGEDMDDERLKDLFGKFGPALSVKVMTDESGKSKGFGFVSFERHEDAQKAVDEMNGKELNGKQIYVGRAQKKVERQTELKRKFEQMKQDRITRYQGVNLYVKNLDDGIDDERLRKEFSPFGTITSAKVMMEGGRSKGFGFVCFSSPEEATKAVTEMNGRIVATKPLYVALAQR
Sequence of PABPC1 RRM3 (P11940 191-289): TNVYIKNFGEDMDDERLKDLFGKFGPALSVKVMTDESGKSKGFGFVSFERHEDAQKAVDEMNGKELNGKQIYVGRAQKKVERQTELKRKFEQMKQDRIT

Binder: AAAAAAAAAAAAAAAAAAAAAAAA (ssRNA) [A24]
- binding result [1]: binds
- binding result [2]: binds

Binder: AAAAAAAAAAAA (ssRNA) [A12]
- Kd [3]: 70 ± 3 µM
- Kd [4]: 0.0013 ± 0.0006 µM

Binder: AAAAAAA (ssRNA) [A7]
- Kd [3]: 200 ± 40 µM
- Kd [5]: 4.7 ± 0.3 µM
- Kd [4]: 0.71 ± 0.1 µM
- binding result [6]: no binding
- binding result [7]: no binding
